Reference: PMC10703496

Tests used:
[1] = molecular target: 6×His-tagged receptor-binding domain (RBD) of SARS-CoV-2 spike, Wuhan (SARS-CoV-2) (UniProt P0DTC2); assay: SPR
[2] = molecular target: spike protein of live Wuhan SARS-CoV-2 (SARS-CoV-2) (UniProt P0DTC2)
[3] = molecular target: dimeric ACE2-albumin fusion: truncated human ACE2 (residues 18–740) fused to engineered human albumi (human) (UniProt Q9BYF1); assay: SEC
[4] = molecular target: soluble His-tagged human neonatal Fc receptor (human) (UniProt P55899)
Sequence of soluble His-tagged human neonatal Fc receptor (human) (P55899 24-297, chain 1 of 2): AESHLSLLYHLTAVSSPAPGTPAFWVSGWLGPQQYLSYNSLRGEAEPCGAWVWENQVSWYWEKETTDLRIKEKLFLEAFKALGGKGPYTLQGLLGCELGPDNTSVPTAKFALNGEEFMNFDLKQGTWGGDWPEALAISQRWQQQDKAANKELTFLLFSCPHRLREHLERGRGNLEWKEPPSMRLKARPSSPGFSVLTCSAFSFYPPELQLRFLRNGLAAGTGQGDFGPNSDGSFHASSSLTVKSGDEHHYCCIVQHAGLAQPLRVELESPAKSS
Sequence of soluble His-tagged human neonatal Fc receptor (human) (P61769 21-119, chain 2 of 2, further chain): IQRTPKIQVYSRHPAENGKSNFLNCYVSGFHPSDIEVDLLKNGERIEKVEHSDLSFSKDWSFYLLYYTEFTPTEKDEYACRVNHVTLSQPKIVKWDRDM

[5] = molecular target: dimeric ACE2-albumin fusion: truncated human ACE2 (residues 18–740) fused to full-length wild-type human albumin (human) (UniProt Q9BYF1); assay: SEC
[6] = molecular target: ACE2(18–740)-WT: truncated dimeric human ACE2 (residues 18–740) fused to the N-terminal end of full- (human) (UniProt Q9BYF1); assay: SPR
[7] = molecular target: ACE2(18–740)-WT: truncated dimeric human ACE2 (residues 18–740) fused to the N-terminal end of full- (human) (UniProt Q9BYF1); assay: SPR; pH 5.5

Sequence of soluble His-tagged human neonatal Fc receptor (human FcRn-His) (P55899 24-297): as the sequence (P55899 24-297, chain 1 of 2) above
Sequence of soluble His-tagged human neonatal Fc receptor (human FcRn-His) (P61769 21-119): as the sequence (P61769 21-119, chain 2 of 2, further chain) above

Question: How did the Kd [1] turn out when “ACE2(18–615)-QMP: monomeric ACE2 peptidase domain (residues 18–615) fused to the N-terminal end of QMP human albumin (from UniProt Q9BYF1-1;P02768)” was run?
Answer: 108 nM

Question: What about the koff [1] of the same substance?
Answer: 0.026 s⁻¹

Question: And the kon [1]?
Answer: 240000 M⁻¹ s⁻¹

Question: For “ACE2(18–615)-WT: monomeric ACE2 peptidase domain (residues 18–615) fused to the N-terminal end of fu (from UniProt Q9BYF1-1;P02768)”, which Kd [1] is on record?
Answer: 327 nM

Question: What about the koff [1] of the same substance?
Answer: 0.0124 s⁻¹

Question: What about the kon [1] of the same substance?
Answer: 38000 M⁻¹ s⁻¹

Question: How did the Kd [1] turn out when “ACE2(18–740)-WT: truncated dimeric human ACE2 (residues 18–740) fused to the N-terminal end of full- (from UniProt Q9BYF1-1;P02768)” was run?
Answer: 0.9 nM

Question: What about the koff [1] of the same substance?
Answer: 0.00015 s⁻¹

Question: What about the kon [1] of the same substance?
Answer: 166000 M⁻¹ s⁻¹

Question: What about the Table S3: IC50 of live virus neutralization (Wuhan SARS-CoV-2 on Vero E6 cells) [2] of the same substance?
Answer: 293 nM

Question: Which stoichiometry N [3] does the source give for “dimeric ACE2-albumin fusion: truncated human ACE2 (residues 18–740) fused to engineered human albumi (from UniProt Q9BYF1 18-740)” here?
Answer: 2

Question: “dimeric ACE2-albumin fusion: truncated human ACE2 (residues 18–740) fused to full-length wild-type human albumin (from UniProt Q9BYF1;P02768)” was tested. Which plasma half-life after IV injection in human FcRn Tg32 mice [4] did it give?
Answer: 1.1 days

Question: What about the stoichiometry N [5] of the same substance?
Answer: 2

Question: Which results are given for “soluble His-tagged human neonatal Fc receptor (human FcRn-His) (from UniProt P55899 24-297; P61769 21-119)”?
Answer: kon [6]: 60000 M⁻¹ s⁻¹; Kd [7]: 102 nM; koff [7]: 0.0061 s⁻¹
